From patent US20200031885A1

Assays:
Experiment in all cases: affinity capture from mixture of 54 pTyr peptides, PRM-MS
[1] = biological target: BLK (pTyr389) peptide IIDSEpYTAQEGAK
[2] = biological target: TIE1 (pTyr1007) peptide GEEVpYVK
[3] = biological target: LMTK2 (pTyr295) peptide EDpYIETDDK
[4] = biological target: EPHA3 (pTyr779) peptide …pYTTR
[5] = biological target: NTRK2 (pTyr706/707) peptide DVYSTDpYpYR
[6] = biological target: NTRK1 (pTyr680/681) peptide DIYSTDpYpYR
[7] = biological target: VGFR1 (pTyr1053) peptide NPDpYVR
[8] = biological target: JAK1 (pTyr1034/1035) peptide EpYpYTVK
[9] = biological target: FGFR1 (pTyr653/654) peptide DIHHIDpYpYK
[10] = biological target: FGFR3 (pTyr647/648) peptide DVHNLDpYpYK
[11] = biological target: FRK (pTyr387) peptide VDNEDIpYESR
[12] = biological target: PGFRB (pTyr857) peptide DSNpYISK
[13] = biological target: EPHA2 (pTyr772) peptide …pYTTSGGK
[14] = biological target: TIE2 (pTyr992) peptide GQEVpYVK
[15] = biological target: FGFR2 (pTyr656/657) peptide DINNIDpYpYK
[16] = biological target: INSRR (pTyr1145/1146) peptide DVYETDpYpYR
[17] = biological target: ERBB3 (pTyr866) peptide QLLpYSEAK
[18] = biological target: VGFR2 (pTyr1059) peptide DPDpYVR
[19] = biological target: EPHA1 (pTyr781) peptide LLDDFDGTpYETQGGK
[20] = biological target: TEC (pTyr519) peptide YVLDDQpYTSSSGAK
[21] = biological target: EPHB2 (pTyr780) peptide …pYTSALGGK
[22] = biological target: SRC (pTyr419) peptide LIEDNEpYTAR
[23] = biological target: EPHA6 (pTyr830) peptide …pYTTTGGK
[24] = biological target: GSK3 (pTyr279/216) peptide GEPNVSpYICSR
[25] = biological target: BTK (pTyr551) peptide YVLDDEpYTSSVGSK
[26] = biological target: ITK (pTyr512) peptide FVLDDQpYTSSTGTK
[27] = biological target: FGFR4 (pTyr642/643) peptide GVHHIDpYpYK
[28] = biological target: MUSK (pTyr755/756) peptide NIYSADpYpYK
[29] = biological target: TXK (pTyr420) peptide YVLDDEpYVSSFGAK
[30] = biological target: HCK (pTyr411) peptide VIEDNEpYTAR
[31] = biological target: DDR1 (pTyr796/797) peptide NLYAGDpYpYR
[32] = biological target: EPHB3 (pTyr792) peptide …pYTSSLGGK
[33] = biological target: MET (pTyr1234/1235) peptide EpYpYSVHNK
[34] = biological target: RET (pTyr905) peptide DVYEEDSpYVK
[35] = biological target: TYK2 (pTyr1054/1055) peptide AVPEGHEpYpYR
[36] = biological target: MERTK (pTyr753/754) peptide IYSGDpYpYR
[37] = biological target: EPHB1 (pTyr778) peptide …pYTSSLGGK
[38] = biological target: FER (pTyr714) peptide QEDGGVpYSSSGLK
[39] = biological target: ROR1 (pTyr645/646) peptide EIYSADpYpYR
[40] = biological target: BMX (pTyr566) peptide YVLDDQpYVSSVGTK
[41] = biological target: RON (pTyr1238/1239) peptide EpYpYSVQQHR
[42] = biological target: PTK7 (pTyr960/961) peptide DVYNSEpYpYHFR
[43] = biological target: FES (pTyr713) peptide EEADGVpYAASGGLR
[44] = biological target: EPHB4 (pTyr774) peptide …pYTSSLGGK
[45] = biological target: SRMS (pTyr380) peptide DDIpYSPSSSSK
[46] = biological target: EPHA8 (pTyr793) peptide …pYTTTGGK
[47] = biological target: DDR2 (pTyr740/741) peptide NLYSGDpYpYR
[48] = biological target: ERBB2 (pTyr877) peptide LLDIDETEpYHADGGK
[49] = biological target: LMTK3 (pTyr296/297) peptide EDpYpYLTPER
[50] = biological target: KIT (pTyr823) peptide NDSNpYVVK
[51] = biological target: ROR2 (pTyr645/646) peptide EVYAADpYpYK
[52] = biological target: JAK3 (pTyr980/981) peptide DpYpYVVR
[53] = biological target: JAK2 (pTyr221) peptide IQDpYHILTR

TrM human Src SH2 Superbinder expressed with His6 and GST tags (designed binder)
PRM signal peak area [1]: 156000 | PRM signal peak area [2]: 409000 | PRM signal peak area [3]: 20900 | PRM signal peak area [4]: 394000 | PRM signal peak area [5]: 115000 | PRM signal peak area [6]: 103000 | PRM signal peak area [7]: 158000 | PRM signal peak area [8]: 110000 | PRM signal peak area [9]: 51200 | PRM signal peak area [10]: 258000 | PRM signal peak area [11]: 291000 | PRM signal peak area [12]: 398000 | PRM signal peak area [13]: 347000 | PRM signal peak area [14]: 210000 | PRM signal peak area [15]: 87100 | PRM signal peak area [16]: 20800 | PRM signal peak area [17]: 164000 | PRM signal peak area [18]: 197000 | PRM signal peak area [19]: 188000 | PRM signal peak area [20]: 781000 | PRM signal peak area [21]: 215000 | PRM signal peak area [22]: 99500 | PRM signal peak area [23]: 288000 | PRM signal peak area [24]: 48300 | PRM signal peak area [25]: 1.31e+06 | PRM signal peak area [26]: 403000 | PRM signal peak area [27]: 36100 | PRM signal peak area [28]: 178000 | PRM signal peak area [29]: 272000 | PRM signal peak area [30]: 384000 | PRM signal peak area [31]: 338000 | PRM signal peak area [32]: 260000 | PRM signal peak area [33]: 111000 | PRM signal peak area [34]: 883000 | PRM signal peak area [35]: 53500 | PRM signal peak area [36]: 26500 | PRM signal peak area [37]: 206000 | PRM signal peak area [38]: 27400 | PRM signal peak area [39]: 177000 | PRM signal peak area [40]: 151000 | PRM signal peak area [41]: 44300 | PRM signal peak area [42]: 8860 | PRM signal peak area [43]: 25100 | PRM signal peak area [44]: 134000 | PRM signal peak area [45]: 479000 | PRM signal peak area [46]: 585000 | PRM signal peak area [47]: 185000 | PRM signal peak area [48]: 42700 | PRM signal peak area [49]: 376000 | PRM signal peak area [50]: 235000 | PRM signal peak area [51]: 334000 | PRM signal peak area [52]: 19700 | PRM signal peak area [53]: 85500

wild-type (wt) human Src SH2 domain expressed with His6 and GST tags
PRM signal peak area [5]: 39600 | PRM signal peak area [6]: 21700 | PRM signal peak area [8]: 58300 | PRM signal peak area [9]: 28500 | PRM signal peak area [10]: 104000 | PRM signal peak area [15]: 51600 | PRM signal peak area [17]: 41900 | PRM signal peak area [21]: 10800 | PRM signal peak area [23]: 2740 | PRM signal peak area [25]: 4210 | PRM signal peak area [27]: 29800 | PRM signal peak area [28]: 47600 | PRM signal peak area [29]: 1520 | PRM signal peak area [31]: 47700 | PRM signal peak area [33]: 26800 | PRM signal peak area [35]: 11600 | PRM signal peak area [39]: 32400 | PRM signal peak area [41]: 5430 | PRM signal peak area [47]: 15300 | PRM signal peak area [49]: 29900 | PRM signal peak area [51]: 85900 | PRM signal peak area [52]: 23300

DM human Src SH2 Superbinder expressed with His6 and GST tags (designed binder)
PRM signal peak area [3]: 1120 | PRM signal peak area [5]: 22800 | PRM signal peak area [6]: 30200 | PRM signal peak area [8]: 46200 | PRM signal peak area [9]: 29000 | PRM signal peak area [10]: 64600 | PRM signal peak area [13]: 4860 | PRM signal peak area [15]: 39500 | PRM signal peak area [16]: 7790 | PRM signal peak area [17]: 152000 | PRM signal peak area [19]: 12300 | PRM signal peak area [20]: 4820 | PRM signal peak area [21]: 98000 | PRM signal peak area [23]: 51100 | PRM signal peak area [25]: 18200 | PRM signal peak area [27]: 30000 | PRM signal peak area [29]: 46100 | PRM signal peak area [31]: 43200 | PRM signal peak area [32]: 14700 | PRM signal peak area [33]: 70800 | PRM signal peak area [35]: 9680 | PRM signal peak area [39]: 27700 | PRM signal peak area [41]: 17400 | PRM signal peak area [42]: 4840 | PRM signal peak area [46]: 57100 | PRM signal peak area [47]: 16200 | PRM signal peak area [48]: 4640 | PRM signal peak area [49]: 78600 | PRM signal peak area [51]: 60500 | PRM signal peak area [52]: 10500 | PRM signal peak area [53]: 39200
